Reference: US7576071B2, “Antithrombotic compound” (sanofi-aventis, priority 2004, dated 2009)
Structures can show the parent of a compound that is named as a salt.

What was measured:
[1] = Pharmacokinetics (half-life) in guinea pigs; details: 0.5 μmol/kg i.v., ex-vivo plasma anti-Xa activity, compared to reference GpIIb/IIIa antagonists (XVII, XIX, XX by LC-MS/MS)
Procedure: Guinea pigs (DH) were administered 0.5 μmol/kg (i.v.) of anticoagulant. The half-life of the pentasaccharide XXII, the “parent” of the oligosaccharide part of the conjugates, and conjugate VIII were indirectly assigned by ex-vivo determination of plasma anti-Xa activity at specific time-intervals as described above. The half-lives of the reference GPIIb/IIIa antagonists XVII, XIX and XX (see Scheme 10) were determined by measuring the plasma concentration at specific time-intervals using LC-MS/MS.

[2] = tested on: Bovine factor Xa; assay: Determination of anti-factor Xa activity in buffer (microtiter plate method, AT-III mediated); format: biochemical; details: Kabi buffer, human AT-III
Excerpt: II. Determination of Anti-Factor Xa Activity in Buffer
(Microtiter Plate Method)
Anticoagulants can inhibit Xa directly or, like heparin, by potentiating the inhibitory activity of AT-III. Anti-Xa activity can be assessed by determination of the rate of hydrolysis of the chromogenic substrate S-2222 in the presence of AT-III. This assay is used to determine anti-Xa activity of heparinoid preparations in Kabi buffer.
Test medium: Kabi buffer.
Ref. compound: International standard heparin (11.4 anti-Xa U/mg).
Composition of the buffer: NaCl 10.17 g (174 mmol); edetate disodium dihydrate 3.26 g (9.6 mmol); tromethamine (Tris) 6.11 g (50.4 mmol); made up to 1 L with ultrapure H2O *. The pH of the solution is adjusted to 7.4 with hydrochloric acid (0.10 mol/L)
Bovine factor Xa (Kabi Diagnostica, Stockholm, Sweden) is dissolved in Kabi buffer to give a solution containing 1.5 U/mL (0.75 nKat/mL). • 3. S-2222 solution
S-2222 (Kabi Diagnostica) is dissolved in ultrapure H2O to give a solution containing 0.375 mg/mL (0.5 mmol/L). • 4. AT-III solution
Human AT-III (Kabi Diagnostica) is dissolved in Kabi buffer to give a solution containing 0.25 U/mL. A fresh solution has to be prepared daily. • 5. Standard solution of the calibration sample
Standard heparin is dissolved in Kabi buffer to give a standard solution containing approx. 0.25 anti-Xa U/mL.
Each preparation is dissolved in ultrapure H2O and diluted with Kabi buffer to the required concentrations in the range of 0.02-0.2 anti-Xa U/mL
Each test sample (0.05 mL) is pipetted into a well of a microtiter plate at RT. AT-III solution (0.05 mL) is added to each sample and the plate is shaken using a Vari-shaker.
An aliquot of Xa solution (0.05 mL) is pipetted into each well 10 min following addition of AT-III solution and the plate is shaken again. Exactly 2 min following addition of Xa solution, 0.1 mL S-2222 solution is pipetted into each well and the plate is shaken again. For all additions a 12-channel pipette is used.
The remaining amount of Xa catalyses the hydrolysis of S-2222, the rate of which is measured photometrically following incubation periods of 2 and 22 min respectively at RT. The absorbance of each sample is measured at 405 nm using a Reader Microelisa, model 310C (Organon Teknika, Oss, The Netherlands) and the increase in absorbance (ΔOD) is calculated. Each test sample is determined in duplicate. With every 10 samples, a blank (0.05 mL Kabi buffer) is included.
From an aliquot of the standard solution of the calibration sample a range of dilutions is made (dilution factor 1,3 for heparin samples). The resulting standard samples (approx. 15 samples) should contain between 0.01-0.25 anti-Xa U/mL. […]
For each sample the mean anti-Xa activity in U/mL is determined using the calibration curve. […]

In the case of CO[C@H]1O[C@H](COS(=O)(=O)O)[C@@H](O[C@@H]2O[C@@H](C(=O)O)[C@@H](O[C@H]3O[C@H](COS(=O)(=O)O)[C@@H](O[C@@H]4O[C@H](C(=O)O)[C@@H](O[C@H]5O[C@H](COS(=O)(=O)O)[C@@H](OCCOCCOCCOCCNC(=O)COCCOCCOCCOCCNC(=O)[C@H](CC(=O)O)NC(=O)[C@@H]6CCCN(C(=O)CCC7CCNCC7)C6)[C@H](OC)[C@H]5OC)[C@H](OC)[C@H]4OC)[C@H](OS(=O)(=O)O)[C@H]3OS(=O)(=O)O)[C@H](OC)[C@H]2OC)[C@H](OC)[C@H]1OS(=O)(=O)O [Compound VIII, sodium salt], the half life [1] is reported as “significantly prolonged”, the Anti-Xa activity ([2]; substrate S-2222, calibrated against standard heparin) is reported as 605 ± 43 U/mg and the Anti-Xa activity ([2]; substrate S-2222, per nmol (from U/mg and Mw)) is reported as 1.45 U/nmol.
